From patent publication US20260092115A1 (Chugai, published 2026)

Columns and labels:
[1] = target: T1, human CTLA4 (soluble analyte of the Biacore assays of Examples 3-3, 4 and 5) (human, UniProt P16410 36-161); assay: SPR 37C, Ab on Protein G, 1000 nM CTLA4, no ATP
T1 construct: also called hCTLA4
T1 sequence: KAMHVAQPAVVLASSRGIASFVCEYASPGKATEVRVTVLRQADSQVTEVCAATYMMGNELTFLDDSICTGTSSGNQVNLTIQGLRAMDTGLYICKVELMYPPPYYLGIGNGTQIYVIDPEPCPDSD
Procedure: (§1) Next, by interacting with a human CTLA4 solution prepared in a running buffer containing ATP to the desired concentration, or a human CTLA4 solution prepared in a running buffer containing no ATP, the binding ability of the antibody to human CTLA4 in the presence or absence of ATP was evaluated. Chips were regenerated with 25 mM NaOH and 10 mM Glycine-HCl (pH 1.5), and assay was performed by repeatedly capturing antibodies. The dissociation constant of each antibody for CTLA4 was calculated using Biacore T200 Evaluation Software 2.0. Specifically, the binding rate constant ka (L/mol/s) and the dissociation rate constant kd (1/s) were calculated by global fitting of the sensorgrams obtained by the measurement, using a 1:1 Langmuir binding model. The dissociation constant KD (mol/L) was calculated from those values. Alternatively, the dissociation constant KD (mol/L) was calculated by the steady state model. In addition, the binding amount of CTLA4 per unit amount of antibody was calculated by correcting the amount of CTLA4 bound as calculated from the sensorgram obtained by the assay with the amount of antibody captured onto the chip surface.
(§2) Biacore T200 was used to evaluate the binding of the generated variants to ATP and to human CTLA4. The assay of binding to ATP was performed at 37° C. using 20 mM ACES (pH 7.4), 150 mM NaCl, 2 mM MgCl₂, 0.05% Tween20 as the running buffer. First, Sure Protein A (GE Healthcare) was immobilized onto a Series S Sensor Chip CM3 (GE Healthcare), and the antibodies were captured onto the chip by interacting an antibody solution prepared in the running buffer. Next, the binding ability to the antibody was evaluated by interacting with an ATP solution prepared in the running buffer. Chips were regenerated with 25 mM NaOH and 10 mM Glycine-HCl (pH 1.5) and assay was performed by repeatedly capturing antibodies. For the binding amount of each antibody to ATP, the binding amount of ATP per unit amount of antibody was calculated by correcting the amount of binding when ATP was injected at a concentration of 100 nM with the amount of antibody captured onto the chip surface. Binding to human CTLA4 was measured using Biacore T200 by the method described in Example 3-3.

[2] = target: T1, human CTLA4 (soluble analyte of the …); assay: SPR 37C, Ab on Protein G, 1000 nM CTLA4, ATP 1 uM
Procedure: as §1, §2

[3] = target: T1, human CTLA4 (soluble analyte of the …); assay: SPR 37C, Ab on Protein G, 1000 nM CTLA4, ATP 10 uM
Procedure: as §1, §2

[4] = target: T1, human CTLA4 (soluble analyte of the …); assay: SPR 37C, Ab on Protein G, 1000 nM CTLA4, ATP 100 uM
Procedure: as §1, §2

[5] = target: T1, human CTLA4 (soluble analyte of the …); assay: SPR 37C, Ab on Protein G, 1000 nM CTLA4, no ATP; no ATP; binding amount at 1000 nM CTLA4
Procedure: as §1, with “Biacore T200 was used to measure the binding of the generated antibodies to human CTLA4. 20 mM ACES (pH 7.4), 150 mM NaCl, 2 mM MgCl₂, 0.05% Tween 20 with ATP added to the desired concentration was used as the running buffer, and the assay was performed at 37° C. First, Protein G (CALBIOCHEM) was immobilized onto a Series S Sensor Chip CM3 (GE Healthcare), and the antibodies were captured by interacting an antibody solution prepared in an ATP-free running buffer with the chip. Next,” for “Next,”
(§3) The KD values marked with an * in the table were calculated using the steady state model. It was shown that all the variants prepared using 04H0150-G1m/04L0072-lam1 as the parent antibody had enhanced binding in the presence of ATP as compared to 04H0150-G1m/04L0072-lam1.

[6] = target: T1, human CTLA4 (soluble analyte of the …); assay: SPR 37C, Ab on Protein G, 1000 nM CTLA4, ATP 1 uM; ATP 1 uM; binding amount at 1000 nM CTLA4
Procedure: as §1, with “Biacore T200 was used to measure the binding of the generated antibodies to human CTLA4. 20 mM ACES (pH 7.4), 150 mM NaCl, 2 mM MgCl₂, 0.05% Tween 20 with ATP added to the desired concentration was used as the running buffer, and the assay was performed at 37° C. First, Protein G (CALBIOCHEM) was immobilized onto a Series S Sensor Chip CM3 (GE Healthcare), and the antibodies were captured by interacting an antibody solution prepared in an ATP-free running buffer with the chip. Next,” for “Next,”
as §3

[7] = target: T1, human CTLA4 (soluble analyte of the …); assay: SPR 37C, Ab on Protein G, 1000 nM CTLA4, ATP 10 uM; ATP 10 uM; binding amount at 1000 nM CTLA4
Procedure: as §1, with “Biacore T200 was used to measure the binding of the generated antibodies to human CTLA4. 20 mM ACES (pH 7.4), 150 mM NaCl, 2 mM MgCl₂, 0.05% Tween 20 with ATP added to the desired concentration was used as the running buffer, and the assay was performed at 37° C. First, Protein G (CALBIOCHEM) was immobilized onto a Series S Sensor Chip CM3 (GE Healthcare), and the antibodies were captured by interacting an antibody solution prepared in an ATP-free running buffer with the chip. Next,” for “Next,”
as §3

[8] = target: T1, human CTLA4 (soluble analyte of the …); assay: SPR 37C, Ab on Protein G, 1000 nM CTLA4, ATP 100 uM; ATP 100 uM; binding amount at 1000 nM CTLA4
Procedure: as §1, with “Biacore T200 was used to measure the binding of the generated antibodies to human CTLA4. 20 mM ACES (pH 7.4), 150 mM NaCl, 2 mM MgCl₂, 0.05% Tween 20 with ATP added to the desired concentration was used as the running buffer, and the assay was performed at 37° C. First, Protein G (CALBIOCHEM) was immobilized onto a Series S Sensor Chip CM3 (GE Healthcare), and the antibodies were captured by interacting an antibody solution prepared in an ATP-free running buffer with the chip. Next,” for “Next,”
as §3

| Binder | Binding to Human CTLA4 (amount per unit antibody) [1] | Binding to Human CTLA4 (amount per unit antibody) [2] | Binding to Human CTLA4 (amount per unit antibody) [3] | Binding to Human CTLA4 (amount per unit antibody) [4] | Binding to Human CTLA4 (amount per unit antibody) [5] | Binding to Human CTLA4 (amount per unit antibody) [6] | Binding to Human CTLA4 (amount per unit antibody) [7] | Binding to Human CTLA4 (amount per unit antibody) [8] |
| --- | --- | --- | --- | --- | --- | --- | --- | --- |
| 04H1389-G1m/04L1305-k0MT (antibody, human IgG1, kappa) heavy: not shown light: DIVMTQSPLSLPVTPGEPASISCDGPSTGVGDYNYVHWYQQKPGQAPRLLIYFTSKKPSGVPDRFSGSGSGTDFTLKISRVEAEDVGVYYCQTYAAPLGPMFGQGTKLEIKRTVAAPSVFIFPPSDEQLKSGTASVVCLLNNFYPREAKVQWKVDNALQSGNSQESVTEQDSKDSTYSLSSTLTLSKADYEKHKVYACEVTHQGLSSPVTKSFNRGEC | 0.03 | 0.12 | 0.154 | 0.151 | – | – | – | – |
| 04H1077-G1m/04L1034-lam1 (antibody, human IgG1, lambda, V domains shown) VH: EVQLVESGGDLVKPGGGLRLSCAASGFTFSSRTMNWVRQAPGKGLEWVSSISTRSGYIYYAESVKGRFTISRDNAKNSLYLQMNSLRAEDTAVYYCARYGKREDMLWVFDYWGQGTLVTVSS VL: QSALTQPPSASGSPGQTVTISCDGPSTDVGDYNWVSWYQQHPGKAPKLMIYFTSKKPSGVPDRFSGSKSGNTASLTVSGLQAEDEADYFCSTYAAPLGPMFGGGTKLTVLG | – | – | – | – | 0.004 | 0.007 | 0.041 | 0.114 |
| 04H1077-G1m/04L1067-lam1 (antibody, human IgG1, lambda, V domains shown) VH: EVQLVESGGDLVKPGGGLRLSCAASGFTFSSRTMNWVRQAPGKGLEWVSSISTRSGYIYYAESVKGRFTISRDNAKNSLYLQMNSLRAEDTAVYYCARYGKREDMLWVFDYWGQGTLVTVSS VL: QSALTQPPSASGSPGQTVTISCDGPSTGVGDYNYVHWYQQHPGKAPKLMIYFTSKKPSGVPDRFSGSKSGNTASLTVSGLQAEDEADYFCSTYAAPLGPMFGGGTKLTVLG | – | – | – | – | 0.012 | 0.041 | 0.131 | 0.192 |
| 04H1077-G1m/04L1086-lam1 (antibody, human IgG1, lambda, V domains shown) VH: EVQLVESGGDLVKPGGGLRLSCAASGFTFSSRTMNWVRQAPGKGLEWVSSISTRSGYIYYAESVKGRFTISRDNAKNSLYLQMNSLRAEDTAVYYCARYGKREDMLWVFDYWGQGTLVTVSS VL: QSALTQPPSASGSPGQTVTISCDGPSTGVGDYNYVHWYQQHPGKAPKLMIYFTSKKPSGVPDRFSGSKSGNTASLTVSGLQAEDEADYFCQTYAAPLGPMFGGGTKLTVLG | – | – | – | – | 0.01 | 0.031 | 0.106 | 0.181 |
| 04H1207-G1m/04L1086-lam1 (antibody, human IgG1, lambda, V domains shown) VH: EVQLVESGGGLVKPGGSLRLSCAASGFTFSSKTMNWVRQAPGKGLEWVSSISTRSGYIYYAESVKGRFTISRDNAKNSLYLQMNSLRAEDTAVYYCARYGKREDMLWVFDYWGQGTLVTVSS VL: QSALTQPPSASGSPGQTVTISCDGPSTGVGDYNYVHWYQQHPGKAPKLMIYFTSKKPSGVPDRFSGSKSGNTASLTVSGLQAEDEADYFCQTYAAPLGPMFGGGTKLTVLG | 0.01 | 0.037 | 0.111 | 0.166 | 0.013 | 0.047 | 0.137 | 0.196 |
| 04H1208-G1m/04L1086-lam1 (antibody, human IgG1, lambda, V domains shown) VH: EVQLVESGGGLVKPGGSLRLSCAASGFTFSSKTMNWVRQAPGKGLEWVSSISTRSGYIYYARSVKGRFTISRDNAKNSLYLQMNSLRAEDTAVYYCARYGKREDMLWVFDYWGQGTLVTVSS VL: QSALTQPPSASGSPGQTVTISCDGPSTGVGDYNYVHWYQQHPGKAPKLMIYFTSKKPSGVPDRFSGSKSGNTASLTVSGLQAEDEADYFCQTYAAPLGPMFGGGTKLTVLG | 0.003 | 0.022 | 0.084 | 0.139 | 0.005 | 0.03 | 0.108 | 0.17 |
| 04H1077-G1m/04L1041-lam1 (antibody, human IgG1, lambda, V domains shown) VH: EVQLVESGGDLVKPGGGLRLSCAASGFTFSSRTMNWVRQAPGKGLEWVSSISTRSGYIYYAESVKGRFTISRDNAKNSLYLQMNSLRAEDTAVYYCARYGKREDMLWVFDYWGQGTLVTVSS VL: QSALTQPPSASGSPGQTVTISCDGPSTDVGDYNYVHWYQQHPGKAPKLMIYFTSKKPSGVPDRFSGSKSGNTASLTVSGLQAEDEADYFCSTYAAPLGPMFGGGTKLTVLG | – | – | – | – | 0.006 | 0.023 | 0.094 | 0.172 |
